# How the values were obtained:
# [1] = target: Hfq:D9A-S38W (Escherichia coli, UniProt P0A6X3 1-102, D9A;S38W); assay: tryptophan fluorescence quenching
# [2] = target: Hfq:E18A-S38W (Escherichia coli, UniProt P0A6X3 1-102, E18A;S38W); assay: tryptophan fluorescence quenching
binder,measurement,setting,value
GUGGUCAGUCGAGUGG (ssRNA) [oligo C],binding result,[1],binds
same,binding result,[2],binds

# Reference: paper PMC4624489
